According to PMC5746516:

B1: NBCe1-B PP1-binding consensus residue deletion mutant (deletion of amino acids 922-927), GFP-tagged (natural protein)
chain: MEDEAVLDRGASFLKHVCDEEEVEGHHTIYIGVHVPKSYRRRRRHKRKTGHKEKKEKERISENYSDKSDIENADESSSSILKPLISPAAERIRFILGEEDDSPAPPQLFTELDELLAVDGQEMEWKETARWIKFEEKVEQGGERWSKPHVATLSLHSLFELRTCMEKGSIMLDREASSLPQLVEMIVDHQIETGLLKPELKDKVTYTLLRKHRHQTKKSNLRSLADIGKTVSSASRMFTNPDNGSPAMTHRNLTSSSLNDISDKPEKDQLKNKFMKKLPRDAEASNVLVGEVDFLDTPFIAFVRLQQAVMLGALTEVPVPTRFLFILLGPKGKAKSYHEIGRAIATLMSDEVFHDIAYKAKDRHDLIAGIDEFLDEVIVLPPGEWDPAIRIEPPKSLPSSDKRKNMYSGGENVQMNGDTPHDGGHGGGGHGDCEELQRTGRFCGGLIKDIKRKAPFFASDFYDALNIQALSAILFIYLATVTNAITFGGLLGDATDNMQGVLESFLGTAVSGAIFCLFAGQPLTILSSTGPVLVFERLLFNFSKDNNFDYLEFRLWIGLWSAFLCLILVATDASFLVQYFTRFTEEGFSSLISFIFIYDAFKKMIKLADYYPINSNFKVGYNTLFSCTCVPPDPANISISNDTTLAPEYLPTMSSTDMYHNTTFDWAFLSKKECSKYGGNLVGNNCNFVPDITLMSFILFLGTYTSSMALKKFKTSPYFPTTARKLISDFAIILSILIFCVIDALVGVDTPKLIVPSEFKPTSPNRGWFVPPFGENPWWVCLAAAIPALLVTILIFMDQQITAVIVNRKEHKLKKGAGYHLDLFWVAILMVICSLMALPWYVAATVISIAHIDSLKMETETSAPGEQPKFLGVREQRVTGTLVFILTGLSVFMAPILKFIPMPVLYGVFLYMGVASLNGVQLLLMPLKHQPDFIYLRHVPLRRVHLFTFLQVLCLALLWILKSTVAAIIFPVMILALVAVRKGMDYLFSQHDLSFLDDVIPEKDKKKKEDEKKKKKKKGSLDSDNDDSDCPYSEKVPSIKIPMDIMEQQPFLSDSKPSDRERSPTFLERHTSC
B2: NBCe1-B 3-point mutant (F922A, R925A, and K927A), GFP-tagged (natural protein)
chain: MEDEAVLDRGASFLKHVCDEEEVEGHHTIYIGVHVPKSYRRRRRHKRKTGHKEKKEKERISENYSDKSDIENADESSSSILKPLISPAAERIRFILGEEDDSPAPPQLFTELDELLAVDGQEMEWKETARWIKFEEKVEQGGERWSKPHVATLSLHSLFELRTCMEKGSIMLDREASSLPQLVEMIVDHQIETGLLKPELKDKVTYTLLRKHRHQTKKSNLRSLADIGKTVSSASRMFTNPDNGSPAMTHRNLTSSSLNDISDKPEKDQLKNKFMKKLPRDAEASNVLVGEVDFLDTPFIAFVRLQQAVMLGALTEVPVPTRFLFILLGPKGKAKSYHEIGRAIATLMSDEVFHDIAYKAKDRHDLIAGIDEFLDEVIVLPPGEWDPAIRIEPPKSLPSSDKRKNMYSGGENVQMNGDTPHDGGHGGGGHGDCEELQRTGRFCGGLIKDIKRKAPFFASDFYDALNIQALSAILFIYLATVTNAITFGGLLGDATDNMQGVLESFLGTAVSGAIFCLFAGQPLTILSSTGPVLVFERLLFNFSKDNNFDYLEFRLWIGLWSAFLCLILVATDASFLVQYFTRFTEEGFSSLISFIFIYDAFKKMIKLADYYPINSNFKVGYNTLFSCTCVPPDPANISISNDTTLAPEYLPTMSSTDMYHNTTFDWAFLSKKECSKYGGNLVGNNCNFVPDITLMSFILFLGTYTSSMALKKFKTSPYFPTTARKLISDFAIILSILIFCVIDALVGVDTPKLIVPSEFKPTSPNRGWFVPPFGENPWWVCLAAAIPALLVTILIFMDQQITAVIVNRKEHKLKKGAGYHLDLFWVAILMVICSLMALPWYVAATVISIAHIDSLKMETETSAPGEQPKFLGVREQRVTGTLVFILTGLSVFMAPILKFIPMPVLYGVFLYMGVASLNGVQAMDALALLLMPLKHQPDFIYLRHVPLRRVHLFTFLQVLCLALLWILKSTVAAIIFPVMILALVAVRKGMDYLFSQHDLSFLDDVIPEKDKKKKEDEKKKKKKKGSLDSDNDDSDCPYSEKVPSIKIPMDIMEQQPFLSDSKPSDRERSPTFLERHTSC

Biological target: Protein phosphatase 1 (PP1) (UniProt P62136)
Chain of UniProt P62136 (P62136 whole entry): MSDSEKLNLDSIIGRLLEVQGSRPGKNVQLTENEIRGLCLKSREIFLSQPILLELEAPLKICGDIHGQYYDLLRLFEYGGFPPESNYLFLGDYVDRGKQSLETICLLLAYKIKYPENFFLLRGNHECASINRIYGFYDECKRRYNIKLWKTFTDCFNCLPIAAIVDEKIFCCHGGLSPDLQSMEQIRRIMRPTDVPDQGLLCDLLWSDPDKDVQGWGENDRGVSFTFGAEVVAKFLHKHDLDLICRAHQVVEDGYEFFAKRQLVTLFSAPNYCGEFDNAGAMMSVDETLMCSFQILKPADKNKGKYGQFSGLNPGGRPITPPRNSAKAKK
Assay: co-IP

Binder | interaction with PP1 by co-IP densitometry, percent of wild type
B1 | 18.2%
B2 | 28.9%
